How the values were obtained:
[1] = biological target: E. coli MukB(G67C)-HaloTag (E. coli) (UniProt P22523); assay: cross-linking; in vivo BMOE cysteine cross-linking of E. coli cells in exponential phase, 10 min on ice in PBS; SDS-PAGE and in-gel fluorescence of MukB-HaloTag-TMR
[2] = biological target: E. coli MukB(G67C)-HaloTag (E. coli) (UniProt P22523); assay: cross-linking; in vivo BMOE combinatorial cysteine cross-linking, cells grown to stationary phase; SDS-PAGE and in-gel fluorescence of MukB-HaloTag-TMR
[3] = biological target: E. coli MukB(G67C, R771C)-HaloTag with natural C730 (E. coli) (UniProt P22523); assay: as above
[4] = biological target: E. coli MukB(G67C, E1407Q)-HaloTag (E. coli) (UniProt P22523); assay: cross-linking; in vivo BMOE cysteine cross-linking of E. coli cells in exponential phase, 10 min on ice in PBS; SDS-PAGE and in-gel fluorescence of MukB-HaloTag-TMR
[5] = biological target: E. coli MukB(G67C, D1406A)-HaloTag (E. coli) (UniProt P22523); assay: as above
[6] = biological target: E. coli MukB(R771C)-HaloTag with natural C730 (E. coli) (UniProt P22523); assay: cross-linking; in vivo BMOE combinatorial cysteine cross-linking, cells grown to stationary phase; SDS-PAGE and in-gel fluorescence of MukB-HaloTag-TMR

**Q.** What does the source list for “E. coli MukB(G67C)-HaloTag (from UniProt P22523 1-1486) (natural protein)”?
**A.** cross-linked fraction [1]: 22%; MukB species cross-linked at the heads [2]: 29%

**Q.** With “E. coli MukB(G67C, R771C)-HaloTag with natural C730 (from UniProt P22523 1-1486) (natural protein)” as the substance, how does the MukB species cross-linked at the heads [3] read?
**A.** 12%

**Q.** With “E. coli MukB(G67C, E1407Q)-HaloTag (from UniProt P22523 1-1486) (natural protein)” as the substance, how does the cross-linked fraction [4] read?
**A.** 30%

**Q.** How did the cross-linked fraction [5] turn out when “E. coli MukB(G67C, D1406A)-HaloTag (from UniProt P22523 1-1486) (natural protein)” was run?
**A.** 21%

**Q.** “E. coli MukB(R771C)-HaloTag with natural C730 (from UniProt P22523 1-1486) (natural protein)” was tested. Which cross-linking efficiency [6] did it give?
**A.** 62%

— article PMC8669397
